According to publication PMC4230587:

Target: RSA-2 (C. elegans (endogenous in embryos)) (UniProt G5EFV3)
Experiment: co-IP

UniProt G5EFV3, sequence (G5EFV3 whole entry): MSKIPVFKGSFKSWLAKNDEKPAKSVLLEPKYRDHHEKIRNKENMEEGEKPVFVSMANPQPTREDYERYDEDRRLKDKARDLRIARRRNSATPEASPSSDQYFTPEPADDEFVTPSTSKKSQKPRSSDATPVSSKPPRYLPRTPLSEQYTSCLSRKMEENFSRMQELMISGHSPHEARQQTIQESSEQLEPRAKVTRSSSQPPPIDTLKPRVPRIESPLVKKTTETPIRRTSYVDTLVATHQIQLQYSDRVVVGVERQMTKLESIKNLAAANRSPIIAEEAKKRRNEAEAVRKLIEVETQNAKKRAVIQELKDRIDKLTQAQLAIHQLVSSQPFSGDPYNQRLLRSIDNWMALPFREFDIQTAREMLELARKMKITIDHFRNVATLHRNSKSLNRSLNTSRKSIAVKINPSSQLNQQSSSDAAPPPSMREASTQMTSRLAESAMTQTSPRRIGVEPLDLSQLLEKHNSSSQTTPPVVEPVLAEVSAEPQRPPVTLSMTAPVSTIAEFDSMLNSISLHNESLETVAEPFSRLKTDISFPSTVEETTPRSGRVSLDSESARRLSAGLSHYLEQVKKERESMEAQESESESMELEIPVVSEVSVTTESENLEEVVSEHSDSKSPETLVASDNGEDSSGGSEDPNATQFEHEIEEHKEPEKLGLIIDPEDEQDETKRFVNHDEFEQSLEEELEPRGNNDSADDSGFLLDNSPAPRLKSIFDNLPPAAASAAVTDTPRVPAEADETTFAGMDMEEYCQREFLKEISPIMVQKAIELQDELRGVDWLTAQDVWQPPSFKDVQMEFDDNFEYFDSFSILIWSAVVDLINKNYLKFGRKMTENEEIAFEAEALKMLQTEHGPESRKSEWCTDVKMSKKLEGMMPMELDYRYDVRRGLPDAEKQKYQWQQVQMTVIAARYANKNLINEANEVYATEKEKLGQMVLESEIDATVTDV

In the case of “SPD-5 (from UniProt P91349 1-1198) (natural protein)”, the percent of total protein co-immunoprecipitated was 20%.
